Assay results: patent US20250066503A1, “CELL INJURY INDUCING THERAPEUTIC DRUG FOR USE IN CANCER THERAPY” (CHUGAI SEIYAKU KABUSHIKI KAISHA, priority 2016, published 2025)

Legend:
[1] = test system: PC-10 xenograft tumor; test: In vivo drug efficacy, humanized NOG mouse model; design: species or system humanized NOG mice; details: 0.008, 0.04, 0.2, or 1 mg/kg once through the tail vein, compared to the vehicle-administered group
Method: Methods called an NOD scid/T cell-injected model, a humanized NOG mouse model, and a human CD3εδγ gene-modified mouse model were used in the in vivo drug efficacy evaluation. Assay using an NOD scid/T cell-injected model was performed as follows. […] T cells expanded by culturing human PBMCs in vitro were injected into the NOD scid mice with confirmed tumor establishment. The mice were treated by administering bispecific antibody-38 and bispecific antibody-30, -31, -32, or -33. Assay using a humanized NOG mouse model was performed as follows. CD34-positive hematopoietic stem cells derived from umbilical cord blood were transplanted into NOG mice by tail vein injection. Human T cells are constantly supplied in the mice, which are called humanized NOG mice. The PC-10 cell line was transplanted into humanized NOG mice. The humanized NOG mice with confirmed establishment of PC-10 tumor were treated by administering antibody-38. Assay using a human CD3εδγ gene-modified mouse model was performed as follows. Cells of mouse-derived cell line forced to express human GPC3 were transplanted into a human CD3εδγ gene-modified mouse model, which had been prepared according to Reference Example 10. The human CD3εδγ gene-modified mice with confirmed tumor establishment were treated by administering antibody-38. […]

[2] = test system: cell lines derived from various cancer types (GPC3-expressing target cells); test: TDCC activity by LDH release test with human PBMCs as effector cells; format: cell-based; details: about 24 hours
Method: TDCC activity of each test antibody was measured by the method described below. Human peripheral blood mononuclear cells (hereinafter referred to as human PBMCs) were used as effector cells and TDCC activity of each test antibody was measured as follows.
50 ml of peripheral blood was collected from a healthy person in Chugai Pharmaceutical Co. Ltd. using a syringe pre-loaded with 500 μl of 5000 units/5 ml heparin solution. The peripheral blood diluted two-fold with PBS was divided into four aliquots and added to Leucosep tubes for lymphocyte separation (GE Healthcare) which had been loaded with 15 ml of Ficoll-Paque PLUS and centrifuged in advance. […]
TDCC activity was assessed by an LDH release method (LDH Cytotoxicity Detection Kit, TAKARA). […] The absorbance at 490 to 492 nm was measured with a plate reader. The reference wavelength used was 600 to 620 nm, and the absorbance was subtracted from that at 490 to 492 nm. […]
Cytotoxic activity was determined based on this equation.
Here, A represents the absorbance of a mixture of target cells, effector cells, and antibody; B represents the absorbance of effector cells; C represents the absorbance of target cells; and D represents the absorbance of target cells with Triton X-100 added.

[3] = test system: NCI-H446 tumor tissues; test: Histopathological evaluation of HE-stained tumor tissues; format: in vivo, humanized NOG mice
Method: The tumor samples were prepared as follows. The tumor samples when antibody-38 was used in combination with a chemotherapeutic agent in the humanized NOG mouse model were prepared by the procedure described below. 2.5 Gy of X ray was irradiated to NOG mice (In-Vivo Science Inc., Y). On the following day, 1×10^5 CD34-positive hematopoietic stem cells which are derived from umbilical cord blood were transplanted into the NOG mice by tail vein injection. After 16 to 20 weeks, each of human cancer cell lines (MKN45 and NCI-H446) was mixed with Matrigel™ Basement Membrane Matrix, and transplanted subcutaneously into the humanized NOG mice. The day of transplantation was defined as Day 0.
When tumor was established, the mice were separated into groups based on tumor size and body weight. Antibody-38 and the pharmaceutical agents for use in combination were administered according to the dose and dosing regimen described in Table 21. The mice were euthanized at the timing described in Table 21, and tumor was excised and preserved for use in tumor infiltrating lymphocyte (TIL) analysis, pathological analysis, or RNA analysis.
With respect to histological analysis of tumor tissues, tumor samples from mice six days after administration of antibody-38 and paclitaxel were fixed in 10% formaldehyde neutral buffer solution. […]

B1: antibody-38: anti-human CD3ε chain and anti-human GPC3 bispecific antibody; H chains SEQ ID NO: 385 and 402, common L chains SEQ ID NO: 410 (antibody)
heavy 1: QVQLVQSGAEVKKPGASVTVSCKASGYTFTDYEMHWIRQPPGEGLEWIGAIDGPTPDTAYSEKFKGRVTLTADKSTSTAYMELSSLTSEDTAVYYCTRFYSYTYWGQGTLVTVSSASTKGPSVFPLAPCSRSTSESTAALGCLVKDYFPEPVTVSWNSGALTSGVHTFPAVLQSSGLYSLSSVVTVPSSSLGTQTYTCNVDHKPSNTKVDKRVESKYGPPCPPCPAPEFRGGPKVFLFPPKPKDTLMISRTPEVTCVVVDVSQEDPEVQFNWYVDGVEVHNAKTKPREEQFASTYRVVSVLTVLHQDWLNGKEYKCKVSNKGLPSSIEKTISKAKGQPREPQVYTLPPSQEEMTKNQVSLTCLVKGFYPSDIAVEWESNGQPENNYKTTPPVLDSDGSFFLYSKLTVDKSRWQEGNVFSCSVMHEALHNHYTQESLSLSP
heavy 2: QVQLVESGGGVVQPGGSLRLSCAASGFTFSNAWMHWVRQAPGKGLEWVAQIKDKSQNYATYVAESVKGRFTISRADSKNSIYLQMNSLKTEDTAVYYCRYVHYAAGYGVDIWGQGTTVTVSSASTKGPSVFPLAPCSRSTSESTAALGCLVKDYFPEPVTVSWNSGALTSGVHTFPAVLQSSGLYSLSSVVTVPSSSLGTKTYTCNVDHKPSNTKVDKRVESKYGPPCPPCPAPEFRGGPKVFLFPPKPKDTLMISRTPEVTCVVVDVSQEDPEVQFNWYVDGVEVHNAKTKPREEQFASTYRVVSVLTVLHQDWLNGKEYKCKVSNKGLPSSIEKTISKAKGQPREPQVYTLPPSQKEMTKNQVSLTCLVKGFYPSDIAVEWESNGQPENNYKTTPPVLDSDGSFFLYSKLTVDKSRWQEGNVFSCSVMHEALHNHYTQKSLSLSP
light: DIVMTQSPLSLPVTPGEPASISCRSSQPLVHSNRNTYLHWYQQKPGQAPRLLIYKVSNRFSGVPDRFSGSGSGTDFTLKISRVEAEDVGVYYCGQGTQVPYTFGQGTKLEIKRTVAAPSVFIFPPSDEQLKSGTASVVCLLNNFYPREAKVQWKVDNALQSGNSQESVTEQDSKDSTYSLSSTLTLSKADYEKHKVYACEVTHQGLSSPVTKSFNRGEC
modifications: An artificially generated sequence
anti-tumor effect [1]: evident, dose-dependent anti-tumor effect
TDCC activity (LDH release) [2]: clearly observed
immune cell infiltration ([3]; antibody 38 administered, six days after administration): observed around the tumor periphery
immune cell infiltration area ([3]; antibody-38 in combination with paclitaxel): expanded
